# Results from the supplement of paper PMC9112550, “Optimization of the antimicrobial peptide Bac7 by deep mutational scanning” (BMC Biology, 2022).
# System: Escherichia coli TOP10
# Assay: shrunken log2 fold change of peptide-encoding DNA abundance (4.5 h post-induction vs induction); higher = less antimicrobial activity (less host growth inhibition)
# Conditions: time post-induction: 4.5 h; library: site-saturation at positions 5, 18, 19, 20
# 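Note: peptides expressed intracellularly from a pBAD plasmid library in pooled LB shake-flask culture, induced with 0.3% L-arabinose, DNA abundance read by NGS, three biological replicates, DESeq2 with apeglm shrinkage.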
row,Sequence,shrunken log2 fold change
1,RRIRHRPPRLPRPRPRPTWHPRP,-0.073
2,RRIRMRPPRLPRPRPRPVTIPRP,-0.0206
3,RRIRMRPPRLPRPRPRPPLFPRP,0.919
4,RRIRQRPPRLPRPRPRPCMEPRP,-0.1
5,RRIRSRPPRLPRPRPRPEMHPRP,0.0756
6,RRIRLRPPRLPRPRPRPAHCPRP,0.0914
7,RRIRKRPPRLPRPRPRPVQGPRP,-0.0824
8,RRIRNRPPRLPRPRPRPSDSPRP,-0.0909
9,RRIRCRPPRLPRPRPRPTLHPRP,-0.0488
10,RRIRERPPRLPRPRPRPWNKPRP,-0.286
11,RRIRARPPRLPRPRPRPAPRPRP,1.02
12,RRIRTRPPRLPRPRPRPWIPPRP,-0.2
13,RRIRYRPPRLPRPRPRPLHCPRP,-0.724
14,RRIRSRPPRLPRPRPRPWCIPRP,-0.0292
15,RRIRIRPPRLPRPRPRPPRRPRP,0.396
16,RRIRERPPRLPRPRPRPEYEPRP,0.0303
17,RRIRLRPPRLPRPRPRPTAMPRP,0.0595
18,RRIRMRPPRLPRPRPRPCTSPRP,0.0228
19,RRIRKRPPRLPRPRPRPHMVPRP,-0.33
20,RRIRLRPPRLPRPRPRPSNWPRP,-0.196
21,RRIRERPPRLPRPRPRPVLCPRP,0.0605
22,RRIRTRPPRLPRPRPRPCYPPRP,-0.425

row,Sequence,shrunken log2 fold change
1,RRIRYRPPRLPRPRPRPPIWPRP,-0.0337
2,RRIRGRPPRLPRPRPRPKDNPRP,0.578
3,RRIRQRPPRLPRPRPRPGKEPRP,0.00212
4,RRIRARPPRLPRPRPRPNTLPRP,-0.202
5,RRIRKRPPRLPRPRPRPTEAPRP,0.77
6,RRIRPRPPRLPRPRPRPLLKPRP,0.593
7,RRIRVRPPRLPRPRPRPYPQPRP,-0.349
8,RRIRCRPPRLPRPRPRPVPKPRP,0.339
9,RRIRGRPPRLPRPRPRPWAPPRP,0.452
10,RRIRFRPPRLPRPRPRPPFMPRP,0.0431
11,RRIRHRPPRLPRPRPRPFFGPRP,-0.0142
12,RRIRARPPRLPRPRPRPGDMPRP,0.374
13,RRIRFRPPRLPRPRPRPWGYPRP,-0.164
14,RRIRPRPPRLPRPRPRPWSRPRP,0.298
15,RRIRFRPPRLPRPRPRPTCWPRP,0.0659
16,RRIRHRPPRLPRPRPRPCYAPRP,-0.291
17,RRIRKRPPRLPRPRPRPMGLPRP,-0.000777
18,RRIRERPPRLPRPRPRPAANPRP,0.0774
19,RRIRVRPPRLPRPRPRPPGTPRP,0.273
20,RRIRYRPPRLPRPRPRPALWPRP,-0.0105
21,RRIRWRPPRLPRPRPRPDSHPRP,-0.126
22,RRIRARPPRLPRPRPRPVPHPRP,0.0133

row,Sequence,shrunken log2 fold change
1,RRIRKRPPRLPRPRPRPFEDPRP,-0.136
2,RRIRFRPPRLPRPRPRPNSEPRP,-0.406
3,RRIRMRPPRLPRPRPRPHQQPRP,0.107
4,RRIRLRPPRLPRPRPRPHQWPRP,-0.0297
5,RRIRNRPPRLPRPRPRPFEQPRP,-0.0506
6,RRIRTRPPRLPRPRPRPYTEPRP,-0.267
7,RRIRKRPPRLPRPRPRPAHCPRP,-0.0571
8,RRIRDRPPRLPRPRPRPWRRPRP,0.0906
9,RRIRARPPRLPRPRPRPSIYPRP,-0.404
10,RRIRQRPPRLPRPRPRPQLDPRP,0.188
11,RRIRERPPRLPRPRPRPRHAPRP,-0.0387
12,RRIRRRPPRLPRPRPRPAFFPRP,0.58
13,RRIRRRPPRLPRPRPRPAYWPRP,0.135
14,RRIRLRPPRLPRPRPRPNDEPRP,0.0316
15,RRIRWRPPRLPRPRPRPNDFPRP,-0.0161
16,RRIRERPPRLPRPRPRPWYMPRP,-0.386
17,RRIRYRPPRLPRPRPRPMNKPRP,-0.187
18,RRIRCRPPRLPRPRPRPWIMPRP,-0.275
19,RRIRYRPPRLPRPRPRPCNHPRP,-0.213
20,RRIRIRPPRLPRPRPRPPTQPRP,0.215
21,RRIRRRPPRLPRPRPRPHHQPRP,-0.086
22,RRIRWRPPRLPRPRPRPTPKPRP,0.627

row,Sequence,shrunken log2 fold change
1,RRIRHRPPRLPRPRPRPSRAPRP,0.373
2,RRIRYRPPRLPRPRPRPIMTPRP,-0.991
3,RRIRHRPPRLPRPRPRPCNLPRP,-0.135
4,RRIRSRPPRLPRPRPRPWSLPRP,-0.0411
5,RRIRKRPPRLPRPRPRPNPWPRP,0.00515
6,RRIRFRPPRLPRPRPRPVWIPRP,-0.0471
7,RRIRLRPPRLPRPRPRPSPLPRP,-0.192
8,RRIRTRPPRLPRPRPRPVMIPRP,-0.126
9,RRIRGRPPRLPRPRPRPDPHPRP,0.507
10,RRIRWRPPRLPRPRPRPNTKPRP,-0.187
11,RRIRDRPPRLPRPRPRPMKCPRP,-0.00962
12,RRIRMRPPRLPRPRPRPISVPRP,0.103
13,RRIRNRPPRLPRPRPRPLETPRP,-0.0418
14,RRIRERPPRLPRPRPRPYSVPRP,-0.114
15,RRIRLRPPRLPRPRPRPTEEPRP,-0.0651
16,RRIRIRPPRLPRPRPRPDTTPRP,-0.243
17,RRIRWRPPRLPRPRPRPSRWPRP,0.209
18,RRIRWRPPRLPRPRPRPGDHPRP,-0.0565
19,RRIRYRPPRLPRPRPRPWWRPRP,-0.0462
20,RRIRTRPPRLPRPRPRPAWKPRP,0.0317
21,RRIRFRPPRLPRPRPRPKKKPRP,-0.00928
22,RRIRWRPPRLPRPRPRPTFPPRP,0.197

row,Sequence,shrunken log2 fold change
1,RRIRKRPPRLPRPRPRPKPHPRP,0.747
2,RRIRSRPPRLPRPRPRPVGAPRP,0.538
3,RRIRCRPPRLPRPRPRPDAPPRP,0.515
4,RRIRDRPPRLPRPRPRPWCGPRP,-0.00113
5,RRIRIRPPRLPRPRPRPWWAPRP,-0.255
6,RRIRWRPPRLPRPRPRPQQSPRP,-0.0166
7,RRIRGRPPRLPRPRPRPEPHPRP,1.09
8,RRIRKRPPRLPRPRPRPKPFPRP,0.611
9,RRIRQRPPRLPRPRPRPEAAPRP,0.751
10,RRIRGRPPRLPRPRPRPCASPRP,0.557
11,RRIRMRPPRLPRPRPRPKIPPRP,0.365
12,RRIRIRPPRLPRPRPRPFRPPRP,0.023
13,RRIRCRPPRLPRPRPRPESMPRP,0.114
14,RRIRMRPPRLPRPRPRPNAMPRP,0.16
15,RRIRERPPRLPRPRPRPVLWPRP,0.153
16,RRIRDRPPRLPRPRPRPAVTPRP,-0.0403
17,RRIRYRPPRLPRPRPRPDWMPRP,0.0748
18,RRIRFRPPRLPRPRPRPKCQPRP,0.274
19,RRIRNRPPRLPRPRPRPTHYPRP,-0.109
20,RRIRARPPRLPRPRPRPPVMPRP,0.395
21,RRIRIRPPRLPRPRPRPEGRPRP,-0.0382
